The target in assay [1] is T1, human chemokine receptor CCR6 (human, UniProt P51684 1-374).
T1 construct: whole, on cells; gene was synthesized (codon-optimized); a C-terminal tag may be present on the expressed protein; also called CCR6 human; human CCR6
T1 sequence (looked up): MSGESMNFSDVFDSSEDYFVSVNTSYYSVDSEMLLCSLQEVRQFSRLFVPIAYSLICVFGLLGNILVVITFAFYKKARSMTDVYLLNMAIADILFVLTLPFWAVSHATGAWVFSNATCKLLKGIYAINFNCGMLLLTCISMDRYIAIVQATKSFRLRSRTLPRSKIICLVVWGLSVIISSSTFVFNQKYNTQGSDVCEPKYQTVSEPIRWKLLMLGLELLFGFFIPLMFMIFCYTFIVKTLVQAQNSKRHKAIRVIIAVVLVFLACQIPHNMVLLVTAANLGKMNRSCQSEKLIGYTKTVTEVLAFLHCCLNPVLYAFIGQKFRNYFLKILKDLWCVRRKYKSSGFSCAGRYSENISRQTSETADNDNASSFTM
Nature of the assay: flow cytometry on cells expressing the target, antibody titration. (A flow cytometer gives signals particle by particle.)

The target in assay [2] is T2, cynomolgus monkey CCR6 (cynomolgus monkey (Macaca Fascicularis)).
T2 construct: whole, on cells; gene derived from a total RNA library; also called CCR6 cyno; cyno CCR6
The assay is described as above.

Assay [3] addresses T1, human chemokine receptor CCR6. In words: cell-based or functional assay.
Assay [4] has as its target T3, mouse CCR6 (mouse, UniProt O54689 1-367).
T3 construct: whole, on cells; gene derived from a cDNA library; also called CCR6 mouse
T3 sequence (looked up): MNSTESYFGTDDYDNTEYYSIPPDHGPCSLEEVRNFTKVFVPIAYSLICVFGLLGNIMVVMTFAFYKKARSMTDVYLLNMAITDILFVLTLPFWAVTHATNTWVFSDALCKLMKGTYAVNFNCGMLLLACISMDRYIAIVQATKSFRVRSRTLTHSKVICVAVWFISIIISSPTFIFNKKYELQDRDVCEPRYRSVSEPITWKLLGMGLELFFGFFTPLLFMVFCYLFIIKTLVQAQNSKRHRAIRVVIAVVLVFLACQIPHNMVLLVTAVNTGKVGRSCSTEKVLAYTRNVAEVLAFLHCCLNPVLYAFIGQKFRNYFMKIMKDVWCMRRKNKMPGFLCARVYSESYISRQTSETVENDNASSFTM
Nature of the assay: flow cytometry on cells expressing mouse CCR6.

The target in assay [5] is T3, mouse CCR6. Nature of the assay: flow cytometry on CHO cells expressing mouse CCR6.
Assay [6] deals with T1, human chemokine receptor CCR6. Nature of the assay: flow cytometry on cells expressing the target, IgG1 titration (repeat of Table 2).
Assay [7] addresses T2, cynomolgus monkey CCR6. Described as above.
Assay [8] concerns the target T2, cynomolgus monkey CCR6. In words: flow cytometry on cells expressing the target, IgG1 titration, anti-human Fc-PE.
The target in the next assay is T4, human CXCR2 (human, UniProt P25025 1-360).
T4 construct: whole, on cells
T4 sequence (looked up): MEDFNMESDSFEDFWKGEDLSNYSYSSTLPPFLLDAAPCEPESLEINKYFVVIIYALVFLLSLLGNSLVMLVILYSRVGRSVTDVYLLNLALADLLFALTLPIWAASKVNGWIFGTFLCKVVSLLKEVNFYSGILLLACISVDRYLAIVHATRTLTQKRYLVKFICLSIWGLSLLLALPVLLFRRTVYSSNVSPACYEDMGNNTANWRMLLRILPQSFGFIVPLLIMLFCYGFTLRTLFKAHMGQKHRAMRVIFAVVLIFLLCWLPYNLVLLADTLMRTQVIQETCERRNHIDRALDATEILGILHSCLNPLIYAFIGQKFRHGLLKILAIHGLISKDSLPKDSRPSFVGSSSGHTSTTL
Nature of the assay: flow cytometry on GPCR-expressing cell panel.

The target of assay [9] is T1, human chemokine receptor CCR6. Nature of the assay: flow cytometry on R1610 cells expressing human CCR6, IgG1 titration, anti-human Fc-PE.
Assay [10] shares this target. Nature of the assay: cell-based or functional assay. This is another data set of the same source.
Assay [11] shares this target. In words: cell-based or functional assay. This is another data set of the same source.
Assay [12] deals with T3, mouse CCR6. In words: flow cytometry on cells expressing the target, IgG1 titration (repeat of Table 2).
In assay [13] the target is T3, mouse CCR6. In words: flow cytometry on cells expressing the target, IgG1 titration, anti-human Fc-PE.
Assay [14] addresses T1, human chemokine receptor CCR6. The description is as above.
The target of a further assay is T5, mouse CCR7 (mouse, UniProt P47774 25-378).
T5 construct: whole, on cells; also called CCR7ms
T5 sequence (looked up): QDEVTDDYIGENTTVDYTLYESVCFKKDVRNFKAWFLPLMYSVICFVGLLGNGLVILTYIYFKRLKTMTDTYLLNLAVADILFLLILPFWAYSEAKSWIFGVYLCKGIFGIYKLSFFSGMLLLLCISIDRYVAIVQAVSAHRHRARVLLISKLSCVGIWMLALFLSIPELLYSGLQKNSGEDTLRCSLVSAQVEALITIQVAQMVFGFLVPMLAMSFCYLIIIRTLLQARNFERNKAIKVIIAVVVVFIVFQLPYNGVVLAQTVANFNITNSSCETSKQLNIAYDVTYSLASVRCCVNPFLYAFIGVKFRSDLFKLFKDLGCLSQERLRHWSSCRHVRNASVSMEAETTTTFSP
In words: flow cytometry on GPCR-expressing cell panel.

The next assay concerns the target T6, human CXCR6 (human, UniProt O00574 1-342).
T6 construct: whole, on cells
In words: flow cytometry on GPCR-expressing cell panel.

Assay [15] concerns the target T3, mouse CCR6. Nature of the assay: flow cytometry on CHO cells expressing mouse CCR6. Here is the method: Cells have been incubated with fully human anti-human CCR6 antibodies in IgG1 format. After washing out residual unbound antibodies the cells were incubated with commercial anti-human Fc antibodies conjugated to the fluorescent dye phycoerythrin (IgG-PE). In more details, the cell staining procedure was: […] cell suspension in 10 μl FACS buffer (1×PBS, 2.0% FBS, 0.2% sodium azide) was mixed with 10 μl of 200 nM the corresponding anti-CCR6 MAB and incubated on ice for 30 min. Washing step—after the incubation 150 μl of FACS buffer was added to the cell sample, the samples were mixed gently by up-down pipetting the cell suspension. Then the samples were centrifuged at 1100 rpm for 5 minutes, and supernatants were removed. Washing step was repeated ones. Then 10 μl of anti-human PE-(Fab)2 form Jackson Immuno Research Lab. #709-116-098 diluted 40 times in FACS buffer were added to the cells and the cells were re-suspended by up-down pipetting. After 20 min. incubation on ice in dark the washing step was repeated twice. The washed cells were mixed with 100 μl of FIX buffer (0.5% Paraformaldehyde solution in PBS). Fixed samples were stored in dark on ice and analyzed by FACS on Guava PCA-96 flow cytometer.
This is another data set of the same source.

This note sets out measurements from patent US20150337037A1 (MSM PROTEIN TECHNOLOGIES, published 2015).

Changes are numbered by the printed parent chain.

T6 sequence (O00574 whole entry): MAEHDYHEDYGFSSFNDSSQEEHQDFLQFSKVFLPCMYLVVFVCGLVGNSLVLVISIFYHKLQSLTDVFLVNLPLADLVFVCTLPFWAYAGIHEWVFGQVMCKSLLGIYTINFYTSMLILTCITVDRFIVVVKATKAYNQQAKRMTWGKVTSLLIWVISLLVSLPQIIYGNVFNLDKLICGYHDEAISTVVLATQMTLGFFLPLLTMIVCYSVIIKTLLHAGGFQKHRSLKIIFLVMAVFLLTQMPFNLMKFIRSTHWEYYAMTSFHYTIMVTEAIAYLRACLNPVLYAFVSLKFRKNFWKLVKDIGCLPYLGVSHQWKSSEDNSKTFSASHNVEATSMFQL

B1: MSM-R627/33 (antibody, V domains shown)
VH: EVQLLESGGGLVQPGGSLRLSCAASGFTISSYMAWVRQAPGKGLEWVSSISPSSGSTYYADSVKGRFTISRDNSKNTLYLQMNSLRAEDTAVYYCARSMWSKQMHRYGLDYWGQGTLVTVSS
VL: EIVLTQSPGTLSLSPGERATLSCRASQSVSSSYLAWYQQKPGQAPRLLIYGASSRATDIPDRFSGSGSGTDFTLTISRLEPEDFAVYYCQQSYSDPITFGQGTKVEIK
notes: also called MSM 627 HC/JSJ R633LC
As for B1, the EC50 was 2.6 nM in [1] and 2.9 nM in the assay with cynomolgus monkey CCR6 [2]. In assay [3], the “IC50, nM (Ca-Flux) CCR6/CCL20” value was more than 500 nM.

B2: MSM-R633 (antibody, V domains shown)
VH: EVQLLESGGGLVQPGGSLRLSCAASGFTFTSSYMAWVRQAPGKGLEWVSSIAPSSGSTYYADSVKGRFTISRDNSKNTLYLQMNSLRAEDTAVYYCARSRWEWYYHSSHGLDYWGQGTLVTVSS
VL: B1 VL
Take B2: the EC50 stood at 7 nM in assay [1] and 7.5 nM with cynomolgus monkey CCR6 [2]. In addition, the binding result in the assay with mouse CCR6 [4] is on record as “no binding”.

B3: MSM-R625 (antibody, human IgG1, kappa, V domains shown)
VH: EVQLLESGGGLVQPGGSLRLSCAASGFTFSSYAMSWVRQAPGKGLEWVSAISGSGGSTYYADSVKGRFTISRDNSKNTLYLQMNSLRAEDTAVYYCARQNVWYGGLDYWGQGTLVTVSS
VL: EIVLTQSPGTLSLSPGERATLSCRASQSVSSSYLAWYQQKPGQAPRLLIYGASSRATGIPDRFSGSGSGTDFTLTISRLEPEDFAVYYCQQYSYAPITFGQGTKVEIKR
Consider B3, for which the EC50 in assay [1] was 1.6 nM; with cynomolgus monkey CCR6 [2] it was 2.6 nM. The binding result with mouse CCR6 [4] is on record as “no binding”.

B4: MSM-R614 IgG1 (antibody, V domains shown)
VH: EVQLLESGGGLVQPGGSLRLSCPASGFTFTRSAMSWVRQAPGKGLEWVSYINSSGGGTYYADSVKGRFTISRDNSKNTLYLQMNSLRAEDTAVYYCARARFIWGFDYWGQGTLVTVSS
VL: B3 VL with Y92W, S93Y, Y94W, I97V
notes: Fully human IgG1
Take B4: the binding result with mouse CCR6 [5] was “no binding”; in the assay with human CXCR2 it was “binds”. The 50% effective concentration (EC50) in [6] stood at 2.5 nM; in the assay with cynomolgus monkey CCR6 [7] it was 3 nM; with cynomolgus monkey CCR6 [8], 3 nM; in assay [9], 2.5 nM.

B5: MSM-R605 IgG1 (antibody)
heavy: not shown
light: EIVLTQSPGTLSLSPGERATLSCRASQSVSSSYLAWYQQKPGQAPRLLIYGASSRATGIPDRFSGSGSGTDFTLTISRLEPEDFAVYYCQQSRATPLTFGQGTKVEIKRTVAAPSVFIFPPSDEQLKSGTASVVCLLNNFYPREAKVQWKVDNALQSGNSQESVTEQDSKDSTYSLSSTLTLSKADYEKHKVYACEVTHQGLSSPVTKSFNRGEC
notes: Fully human IgG1
As to B5, the “IC50, nM CCL20-Ca-Flux” value in assay [10] came to 1.5 nM. For the same molecule, in assay [11], the “Ca-Flux IC50, nM CCR6/CCL20” value amounted to 1.5 nM. The EC50 with mouse CCR6 [12] was 1.6 nM; in assay [6], 1 nM; with cynomolgus monkey CCR6 [7] it was 1.8 nM; with mouse CCR6 [13] it was 1.6 nM; in assay [14] it was 1 nM; with cynomolgus monkey CCR6 [8], 1.8 nM. The binding result with mouse CCR7 and with human CXCR6 was “binds” in each case.

B6: MSM-R601 IgG1 (antibody, V domains shown)
VH: EVQLLESGGGLVQPGGSLRLSCAASGFTFSSYAMSWVRQAPGKGLEWVSAISGSGGSTYYADSVKGRFTISRDNSKNTLYLQMNSLRAEDTAMYYCARHGYSATRQGLDYWGQGTLVTVSS
VL: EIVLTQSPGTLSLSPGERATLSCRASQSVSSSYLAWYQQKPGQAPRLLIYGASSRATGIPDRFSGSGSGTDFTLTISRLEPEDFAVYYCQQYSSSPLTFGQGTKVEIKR
notes: Fully human IgG1 made in transiently transfected CHO cells; HC AA / LC AA entries are full chains
Take B6: in the assay with mouse CCR6 [15], the binding result was “no binding”. For the same molecule, the EC50 is 25 nM in [6], 14.5 nM with cynomolgus monkey CCR6 [7], 25 nM in assay [14] and 14.5 nM with cynomolgus monkey CCR6 [8].

One may read the EC50 as the concentration at which the effect is half-maximal.
